The text below walks through data of US20210395344A1.

Experiment [1] deals with SARS-CoV-2 Spike Glycoprotein S1 (subunit 1) (SARS-CoV-2) (UniProt P0DTC2). The experiment can be described thus: epitope binning; competitor 2-6.
The target is the same in experiment [2]. Kind of experiment: epitope binning; competitor 2-8.
Experiment [3] shares this target. The experiment can be described thus: epitope binning; competitor Abcam CR3022.
Experiment [4] shares this target. The experiment can be described thus: epitope binning; competitor 2-2.
The target is the same in experiment [5]. Kind of experiment: epitope binning; competitor 1-35.
Experiment [6] has the same target. The experiment can be described thus: epitope binning; competitor 2-11.
Experiment [7] has the same target. Kind of experiment: epitope binning; competitor 1-32.
Experiment [8] has the same target. Kind of experiment: epitope binning; competitor 1-16.
The target is the same in experiment [9]. Kind of experiment: epitope binning; competitor Acro mAb.
The target is the same in experiment [10]. Kind of experiment: epitope binning; competitor 2-5.

As for Abcam CR3022 (antibody), the epitope binning score in experiment [1] was 2; in experiment [2] it was 0; in [3] it was 0; in experiment [4], 0; in [5], 2; in [6], 1. The epitope binning score in [7] was determined as 1; in [8], 2; in experiment [9] it was 2; in [10], 0.
